Test [1] addresses T1, human B7-H3 expressed on a cell surface (human cancer cell lines) (human, UniProt Q5ZPR3 29-534).
T1 construct: whole, on cells; also called cell surface expression B7-H3 antigen
T1 sequence (looked up): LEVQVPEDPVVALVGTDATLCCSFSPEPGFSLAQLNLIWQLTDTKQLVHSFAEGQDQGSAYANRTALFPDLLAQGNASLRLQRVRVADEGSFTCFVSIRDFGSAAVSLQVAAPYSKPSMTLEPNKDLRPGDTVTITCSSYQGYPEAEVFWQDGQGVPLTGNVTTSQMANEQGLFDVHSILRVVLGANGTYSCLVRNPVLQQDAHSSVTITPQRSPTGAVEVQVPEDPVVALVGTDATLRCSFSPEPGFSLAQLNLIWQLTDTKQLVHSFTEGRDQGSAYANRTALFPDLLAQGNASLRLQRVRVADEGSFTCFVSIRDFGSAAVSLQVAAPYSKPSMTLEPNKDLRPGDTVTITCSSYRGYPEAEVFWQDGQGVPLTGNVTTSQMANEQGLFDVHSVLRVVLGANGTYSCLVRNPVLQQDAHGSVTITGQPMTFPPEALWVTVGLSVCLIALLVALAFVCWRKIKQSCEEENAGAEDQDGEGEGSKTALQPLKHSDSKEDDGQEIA
Kind of test: flow cytometry, MDA-MB-231 cells, antibody 10 ug/ml.

Test [2] addresses T1, human B7-H3 expressed on a cell surface …. The test can be described thus: flow cytometry, Panc-1 cells, antibody 10 ug/ml. From the text:
(§1) Using various kinds of cancer cells A2780 (human ovarian cancer, ECACC, 93112519), SKOV-3 (human ovarian adenocarcinoma, ATCC® HTB-77™) OVCAR-3 (human ovarian adenocarcinoma, ATCC® HTB-161™), HCT116 (colon cancer cell, ThermoFIshcer Sci), HT29 (olorectal adenocarcinoma, ATCC® HTB-38™), DLD-1 (colorectal adenocarcinoma cell lines, ATCC® CCL-221™), Calu-6 (Non-small-cell lung carcinoma, ATCC® HTB-56™), HCC1954 (TNM stage IIA, grade 3, ductal carcinoma, ATCC® CRL-2338™), HCC1187 (TNM stage IIA, ATCC® CLC-2322™), renal cancer cell line 786-0 (renal cell adenocarcinoma, ATCC® CRL-1932™), A498 (kidney carcinoma, ATCC® HTB-44™), Panc-1 (pancreas epithelioid carcinoma, TCC CRL-1469™), NCI-N87 (gastric carcinoma, TCC CRL-5822™), HeLa (cervix adenocarcinoma, ATCC® CCL-2™), JeKo-1 (Lymphoma, ATCC® CRL-3006™) and FACSCalibur (BD Biosciences) device, the degree of binding of anti-B7-H3 antibody to B7-H3 was measured as follows.
(§2) After dissociating each cell line and washing it with PBS buffer, the number of cells was counted and adjusted to 2×10^5 cells/200 µl PBS, and then was treated with 10 µg/ml of B7-H3 monoclonal antibodies prepared in Example 2. Reaction was allowed at 4° C. for 1 hr. […] After the reaction, cells were washed in PBS and analyzed using the FACSCalibur device. […]

For test [3] the target is unchanged. Kind of test: flow cytometry, A-498 cells, antibody 10 ug/ml.
Excerpt: as §1, §2
(In flow cytometry, cells or beads pass a laser one at a time.)

Test [4] shares this target. The test can be described thus: flow cytometry, MDA-MB-468 cells, antibody 10 ug/ml.
Test [5] shares this target. The test can be described thus: flow cytometry, MCF-7 cells, antibody 10 ug/ml.
The target is the same in test [6]. Kind of test: flow cytometry, HCT116 cells, antibody 10 ug/ml.
Excerpt: as §1, §2

Test [7] has the same target. Kind of test: flow cytometry, DLD-1 cells, antibody 10 ug/ml.
Excerpt: as §1, §2

Test [8] shares this target. Kind of test: flow cytometry, HCC1954 cells, antibody 10 ug/ml.
Excerpt: as §1, §2

For test [9] the target is unchanged. The test can be described thus: flow cytometry, HCC1187 cells, antibody 10 ug/ml.
Excerpt: as §1, §2

Test [10] has the same target. The test can be described thus: flow cytometry, NCI-N87 cells, antibody 10 ug/ml.
Excerpt: as §1, §2

Test [11] shares this target. Kind of test: flow cytometry, SKOV-3 cells, antibody 10 ug/ml.
Excerpt: as §1, §2

Test [12] shares this target. Kind of test: flow cytometry, OVCAR-3 cells, antibody 10 ug/ml.
Excerpt: as §1, §2

For test [13] the target is unchanged. The test can be described thus: flow cytometry, Hela cells, antibody 10 ug/ml.
Excerpt: as §1, §2

Test [14] shares this target. Kind of test: flow cytometry, 786-0 cells, antibody 10 ug/ml.
Excerpt: as §1, §2

Test [15] shares this target. The test can be described thus: flow cytometry, Calu-6 cells, antibody 10 ug/ml.
Excerpt: as §1, §2

Test [16] shares this target. The test can be described thus: flow cytometry, HT29 cells, antibody 10 ug/ml.
Excerpt: as §1, §2

The target is the same in test [17]. The test can be described thus: flow cytometry, A2780 cells, antibody 10 ug/ml.
Excerpt: as §1, §2

Test [18] has the same target. Kind of test: flow cytometry, JeKo-1 cells, antibody 10 ug/ml.
Excerpt: as §1, §2

The results in this text go back to US11891445 (ABL BIO, dated 2024).

B1: 84D (comparison group antibody, Enoblituzumab) (antibody, V domains shown)
VH: EVQLVESGGGLVQPGGSLRLSCAASGFTFSSFGMHWVRQAPGKGLEWVAYISSDSSAIYYADTVKGRFTISRDNAKNSLYLQMNSLRDEDTAVYYCGRGRENIYYGSRLDYWGQGTTVTVSS
VL: DIQLTQSPSFLSASVGDRVTITCKASQNVDTNVAWYQQKPGKAPKALIYSASYRYSGVPSRFSGSGSGTDFTLTISSLQPEDFATYYCQQYNNYPFTFGQGTKLEIK
In the case of B1, the “MFI Ratio” value stood at 5.4 ratio in test [1]; 9 ratio in test [2]; 24 ratio in test [3]; 8.6 ratio in test [4]; 78 ratio in test [5]; 5.9 ratio in [6]. The “MFI Ratio” value was 10.7 ratio in test [7]; 14 ratio in test [8]; 14.9 ratio in [9]; 12.8 ratio in test [10]; 11.9 ratio in test [11]; 13.7 ratio in [12]. Besides, the “MFI Ratio” value is 23.5 ratio in test [13]; 20 ratio in test [14]; 23.2 ratio in test [15]; 8.9 ratio in test [16]; 13.1 ratio in test [17]; 2.9 ratio in test [18].
